Where two headings read alike, the source gives them in different places.
How the values were obtained:
[1] = Patterned fluorescent films (SilMA or SF/PEG-DA); assay type: physicochemical
Experimental: Multispectral imaging was performed with a Nuance FX multispectral imaging system with a Canon macro lens and illuminated by 365 nm light. Exposure times were varied by sample and were selected by automatic exposure timing in the acquisition software. Images were processed using Nuance software and spectral elements were picked by hand from at least 20 sample locations. Raw processed spectra had large discontinuities introduced by the internal monochromator, which were removed with a custom algorithm.
A glass coverslip (22×22 mm) was placed onto the vacuum chuck of a Laurell WS-650 spin coater. Onto the surface was pipetted 100 μL of silk solution (7.0% w/w silk fibroin, 0.7% w/w polyethylene glycol diacrylate), which was manually spread to cover the entire surface. […] The sample was then water vapor annealed by being placed in a Memmert UN 30 Plus humidity-controlled oven at 45 C and 90% relative humidity. A timer was started once the oven had reached 90% humidity after then drop due to sample addition and allowed to sit in the oven for 5.0 minutes. Once removed the sample was loaded onto the vacuum chuck again and 30 μL of DAT solution (5 mg/mL DAT in isopropyl alcohol) was dropped onto the surface. A combined spreading/evaporation program was run with a single 20 second phase (4000 RPM, 250 RPM/sec). The sample was then covered by a photomask and exposed to 302 nm UV light (Labortechnik UVLMS-38 8 Watt UV multiwavelength lamp) to induce the photoclick reaction. If a multi-emitter film was to be fabricated, then a PDMS isolation layer must be applied if the lower layer is composed of SF/PEG-DA. To form the isolation layer, Sylgard 184 monomer was mixed with curing agent in a 10:1 ratio and 500 μL was applied to the glass slide by spin coating (5 sec, 500 RPM spread, 30 sec 5000 RPM thinning, 500 RPM/sec acceleration). This was cured by heating the slide on a 80 C hotplate for 30 minutes. The subsequent layer could then be applied in an identical manner to the first. If SilMA was used as the lower layer, the isolation layer is not needed and the second layer can be applied directly.
Films were fabricated with a spin-coating process, where either SilMA or a mixture of SF and PEGDA were dropped onto glass coverslips and spun to produce uniform films. Afterwards the films were water vapor annealed to recrystallize them and lock in the position of the polymer(s). Next a solution of the DAT dye in IPA or DI water was drop cast onto the surface, then spun to remove excess solution. This film was then exposed to 302 nm UV light through a quartz photomask or steel shadow mask for 30 seconds. The DAT impregnated films reacted promptly and attained 60% of their full fluorescent brightness in 30 seconds and their maximum brightness in less than 5 minutes (FIG. 21A,B). […]

[2] = DAT precursor, UV-Vis absorption
Experimental: Spectroscopy was performed using a Synergy HT plate reader in with sample Corning Costar UV-transparent 96 well plates (Corning 3635). Initially samples were diluted to 1 mg/mL in either IPA or DIW and a dilution curve was made with each step reducing the concentration by half. The concentration chosen for measurement was the most concentrated sample that had the peak of interest entirely below 1.0 absorption units. When an appropriate concentration was found 100 μL of sample was then loaded into each well with samples loaded in triplicate. If the standard deviation between replicates exceeded 0.05 AU the measurement was repeated with fresh samples.

[3] = pyrazoline bound to SilMA, derived from the named DAT
Experimental: Fluorophores bound to either silk or PEG-DA were generated by dissolving a DAT precursor to a final concentration of 100 μM in water for silk-bound fluorophores and either DIW, IPA or ethyl acetate (EtAc) for PEG-DA-bound fluorophores. These were reacted by exposure to 302 nm light (specs) for 10 minutes under constant stirring. To an opaque black 96-well plate (Corning 3915) was added 3 separate 100 μL aliquots of fluorophore solution. These were measured by a Molecular Devices SpectraMax M2 plate reader, exciting at either 300, 365 or 405 nm and recording spectra from 25 nm […] the excitation wavelength down to 650 nm with a 5 nm resolution.

[4] = Fluorescence titration (pH dependence, pKa) of PEG-DA-bound pyrazolines; assay type: physicochemical
Experimental: A 100 mL beaker was placed on a stir plate and filled with 50 mL of either deionized water or isopropyl alcohol and a magnetic stirrer. Fluorescent pyrazoline bound to PEG was added to a final concentration of 1 mg/mL and stirred until homogenous. An Ocean Optics SR fiber spectrometer was attached to a UV-Vis optical fiber (200-800 nm, 200 μm core diameter) and the fiber was mounted such that it was normal to the surface of the liquid. A 365 nm LED was placed at such that it illuminated the beaker from the side, perpendicular to the orientation of the fiber. If deionized water was used as the solvent, a pH probe was immersed in the liquid as well. The LED was switched on and the spectrometer exposure time was adjusted until the fluorescent peak reached at least 1000 counts or 3 seconds of exposure, whichever occurred first. During capture 5 exposures were averaged and smoothed by a 9-point moving average. […]
To determine the exact pH dependance of the fluorescence transition, fluorescence was monitored during an acid-base titration with a custom optical set-up (FIG. 12). […]
Resulting titrations generally produced either a sigmoidal curve with high and low pH stable regimes (FIG. 14A) or a static, pH independent fluorescence (FIG. 14B). […] The pKa values estimated by fluorescence are generally within their estimated pKa windows, with the exception of the amino derivatives (FIG. 14D). […]

[5] = literature values of related compounds; cited from earlier work

SMILES | fluorescence of resulting pyrazoline in film ([1]; PEG-DA/SF films) | fluorescence of resulting pyrazoline in film ([1]; SilMA films) | Excitation λmax ([2]; peak 1) [nm] | Emission λmax ([3]; pH 3) [nm] | Excitation λmax ([3]; pH 3) [nm] | Emission λmax ([3]; pH 10) [nm] | Excitation λmax ([3]; pH 10) [nm] | pH at which highly emissive state is centered [4] | pKa [5] | Excitation λmax ([2]; peak 2) [nm] | Excitation λmax ([2]; peak 3) [nm]
Nc1cccc(-c2nnn(-c3ccccc3)n2)c1 [DAT-9, 5-(3-aminophenyl)-2-phenyl-2H-tetrazole] | visible | nearly completely quenched | 271 | 455 | 365 | 460 | 375 | – | – | – | –
O=C(O)c1ccc(-c2nnn(-c3ccc(B(O)O)cc3)n2)cc1 [DAT-5, 2-(4-boronophenyl)-5-(4-carboxyphenyl)-2H-tetrazole] | – | – | 285 | 505 | 370 | 475 | 380 | 6 | – | – | –
O=C(O)c1ccc(-c2nnn(-c3ccc(O)cc3)n2)cc1 [DAT-4, 2-(4-hydroxyphenyl)-5-(4-carboxyphenyl)-2H-tetrazole] | – | – | 296 | 530 | 335 | 530 | 360 | – | – | – | –
OB(O)O [boric acid] | – | – | – | – | – | – | – | – | 9.15 | – | –
Nc1ccc(-c2nnn(-c3ccccc3)n2)cc1 [DAT-8, 5-(4-aminophenyl)-2-phenyl-2H-tetrazole] | – | – | 294 | – | – | – | – | – | – | – | –
CCOC(=O)c1ccc(-n2nnc(-c3ccc(C(=O)O)cc3)n2)cc1 [DAT-2, 2-(4-(ethoxycarbonyl)-phenyl)-5-(4-carboxyphenyl)-2H-tetrazole] | – | – | 265 | 460 | 370 | 455 | 350 | – | – | – | –
O=[N+]([O-])c1ccc(-c2nnn(-c3ccccc3)n2)cc1 [DAT-6, 5-(4-nitrophenyl)-2-phenyl-2H-tetrazole] | – | – | 296 | – | – | – | – | – | – | – | –
Oc1ccc(-c2nnn(-c3ccccc3)n2)cc1 [DAT-10, 5-(4-hydroxyphenyl)-2-phenyl-2H-tetrazole] | visible | nearly completely quenched | 253 | 435 | – | 435 | 355 | – | – | 281 | 300
O=[N+]([O-])c1cccc(-c2nnn(-c3ccccc3)n2)c1 [DAT-7, 5-(3-nitrophenyl)-2-phenyl-2H-tetrazole] | – | – | 266 | – | – | – | – | – | – | – | –
O=C(O)c1ccc(-c2nnn(-c3ccc(S(=O)(=O)O)cc3)n2)cc1 [DAT-3, 2-(4-sulfophenyl)-5-(4-carboxyphenyl)-2H-tetrazole] | – | – | 279 | 490 | 385 | 460 | 375 | – | – | – | –

Source: patent publication US20260124324A1, “PHOTOCLICK CHEMISTRY OF SILK FOR TEMPORARY UV TATTOOS” (Trustees of Tufts College, priority 2023, published 2026)
